The values below come from a protein production outcome set (Wang et al. 2014).

The data set can be described thus: label from the status in PepcDB records.

As to “MTMLDAAAPPDLAGLFAPAQRRSRTVDWQEPGPVARAAMAMSGLEVMQAIRDGRLPPPPLARLIGFKMAEVHRGRIVMQLDPDQSLENTAGLLHGAIAAALLDTAMGCAISTQQPAGQGSVTMDLKLSYLRPLSVRSGTIVAEGRVVKLGRQSSYTEGFVYDGAGKLAVHATATFAMLGAGPVAAPHPHES”, the protein production entry was “failed”.
As to “MTMLLDGGPQFPGLGVGSFGAPRHHEMPNREPAGMGLNPFGDSTHAAAAAAAAAAFKLSPAAAHDLSSGQSSAFTPQGSGYANALGHHHHHHHHHHHTSQVPSYGGAASAAFNSTREFLFRQRSSGLSEAASGGGQHGLFAGSASSLHAPAGIPEPPSYLLFPGLHEQGAGHPSPTGHVDNNQVHLGLRGELFGRADPYRPVASPRTDPYAAGAQFPNYSPMNMNMGVNVAAHHGPGAFFRYMRQPIKQELSCKWIDEAQLSRPKKSCDRTFSTMHELVTHVTMEHVGGPEQNNHVCYWEECPREGKSFKAKYKLVNHIRVHTGEKPFPCPFPGCGKIFARSENLKIHKRTHTGEKPFKCEFEGCDRRFANSSDRKKHMHVHTSDKPYICKVCDKSYTHPSSLRKHMKVHESQGSDSSPAASSGYESSTPPAIASANSKDTTKTPSAVQTSTSHNPGLPPNFNEWYV”, the protein production result is listed as “not failed”.
Under “MTMLLSIIVPTFKPQKTYFEECLFSLFNQTMFHYLYEVIVVLNGDIDTQYTDMILDIFAYKPAGLYCRLIKTDQAGVSNARNLGIDAAKGQYIGFVDDDDIVSSDYLEELCKISSRNIVGVSNVHTFRKTIEEKEDNFFACRIIQQRECQYSLFRNRAILAFPVAKLIHRDIIGNRRFNPRFKNGEDALFMTEISDLIGGFRFTKEYTTYYVRERAGSASRRPLKRGQLCWDTFMLIKAYVSIYLSSPFSYNFLLFASRIPGSIKGAIKLSRNTAFFLEHHHHHH” stands “failed”; under “MTMMTATQALSVNPATGQTLAAMPWANAQEIEHALSLAASGFKKWKMTSVAQRAQTLRDIGQALRAHAEEMAQCITREMGKPIKQARAEVTKSAALCDWYAEHGPAMLNPEPTLVENQQAVIEYRPLGVILAIMPWNFPLWQVLRGAVPILLAGNSYLLKHAPNVTGCAQMIARILAEAGTPAGVYGWVNANNEGVSQMINDPRIAAVTVTGSVRAGAAIGAQAGAALKKCVLELGGSDPFIVLNDADLELAVKAAVAGRYQNTGQVCAAAKRFIVEEGIAQAFTDRFVAAAAALKMGDPLVEENDLGPMARFDLRDELHQQVQASVAEGARLLLGGEKIAGEGNYYAATVLADVTPDMTAFRQELFGPVAAITVAKDAAHALALANDSEFGLSATIFTADDTLAAEMAARLECGGVFINGYSASDARVAFGGVKKSGFGRELSHFGLHEFCNVQTVWKNRV”, “failed”.
On to “MTMYADLVLHGGSIATLDDKLEQAQAVAIAAGRIIAVGSDAHCLALAGPGTRRIGLGGACVMPGINDSHCHPDGQAVKAGRWDDVSQVATQQALLARIADFHRRMPAGAWYLGFRFDDTHSGGYPARQALEQAAPGRPVFLLRRDAQVGLASAPALAALLASGLATQVPPHCLDAATGLARGRGVFAFTTHIAAADSLDDYLEGFPTLFAEMGRMGITSVHNALTSALAVQAYRALHGAGRLPVRVGMMLNGRDQRLVDETLAAGLRFGAGDDRLYLLGVEYGSDGSTSGRTAAYYQPYVGEEGGDGRPANRGDVNFSAEDLAAKVGRVMAAGLQAAATGNGDRGIDFALDAFEQGLRAHPGAVPPRIEHCCCAPPAIQQRMAALGVIDSSAAGFAYNLGDAYLRNRPSAEMAWMWPHRDMLDRGVLVCAHSDAPVCERNPFLGMWSMVTRKTASGASLGAGQAITPLEAMRCYTANPARAEGQAARKGTLSPGKLADLIVLDRDPCAVDPDEIRHTQVLATLVGGQATYRAAGAPSWADELPMRE”, for which the protein production result is “failed”.
“MTNAMELYQMLPKTNCKKCGKTSCMAFAVALMARELTPEDCPPLKEEPKYKESYEKLSEIFKPSEGATETGLIVHEDLCFGCGNCVVACPPNVANDPYGVGSGKAPTNPGRLVLTVEDGVVKAQNLGECRRFGKNKILCNGCIVTCPVEAIEFV”: the protein production entry is recorded as “failed”.
On to “MTNFNIDFYAPAKEQRASTHSVMGLSSVPHPSPLFLETPYSELWSRHFGSAVVSLSVTADLAMLAVACKNRQLTVLSRDGELHWSHRLDDDITATAIASNHHVAVGTQQASDGAVAVYLFDADGRELFRTSLKSAVSSLTHSSNGEHLVIQCKNQAWYIASRVADTYQLSQANAEDVAQSKRNDALLAVKDRLLSEPNLYPHAASVAVSLEGTAAIGSLDGKIHLIDCQGKPLWSRQVDGEVWTLGISENGAIIASGCTDGTVKLLANHAHDAYNQYIHALQHSAERLKNTAEQQQAVSEILASLSQTGLAVYAVNWLQEGTLQLAPDALDEIVIKLLSEQVQRFPKHYASHFILAQTYQRRQEWHQAARHFTWAGQNERMKLKSFTLAAESFQKAGLPFAAKSAYRRARELTVTEEAKKTLYTLGRIHEEQGSITDAQKYYEVVFTLNPDYLDVCARLQNLNSPPATLTSRAVPENKDWYASLIRELLSPVSQHGFDLARQDNPAHSRTARLTSVAEHRKRLLSIVSEFSLDSVDNTADARLGYDVAAYMRYDCSVPEDEAKKSLELVNMLDCIKHYGPFSKSLDIGAATGRYPTLLAQQGIQAFGVDLEPMAVEFARKKSNGALNPQFHQGDARDLPFESTQFDLVTCMMGTAAHFPRQDVPTVMSEIHRCLVPGGFCVISTWDIECPHLTYLSIYSHEQKELMRQNAISRADVSEIAIAQGFVVEEIRGVGLLPESLGYELDLQQDGPERIRNLLDMDLAFQAKFPDLHGQMYMLIIRKI”, for which the protein production result was “failed”.
Take “MTNFQRARSEEQRAVRRQAILDTTAAMLEEMPVGEVSLNELSRRVGLAKSNVLRYFESREAILLELLDRAWQQWVADLPALVHAGVDQGAPVSRRAEQFAAVIAASLAGRQVLCDLLSAQAGVLEHNVSPQVAARYKRAAVANVADIAALAHQHLPELGASAPQLTAVMIMAVGAVWTHARPSPAMLSAYEADPSLTAFKLDFVTTLQEMLATLTAGTIARESA”: the protein production entry is given as “not failed”.
Turning to “MTNHNNSGKKKVAILIEQAVEDTEFIIPCNGLKQAGFEVVVLGSRMNEKYKGKRGRLSTQADGTTTEAIASEFDAVVIPGGMAPDKMRRNPNTVRFVQEAMEQGKLVAAVCHGPQVLIEGDLLRGKQATGFIAISKDMMNAGADYLDEALVVDGNLITSREPGDLAIFTTAILSRLGYGGKDAALPDEKDRNAEWWKLADAWGGSTKGDIVRGLNTALGGERYSLEALEKYTEKESDVEAKALFQEMITNKQRHIEYLETYLTRLGEKPSLSANIANQYAKVKTALTGSDDIYQIRSALGDIQTGIGDIGNLCAMYTDPIATAIFKEIYKDLVKYEQRLVSLYRTRTNATVQPPKPTTGAAVSM”, the protein production entry is given as “not failed”.
“MTNIIKIRASVFIPMSWTEAKMDMETGQVIQFEGDSREFTPHAVNTMRSRVEQEVVVDFYKQEVFSYANTGITTEKVISPDGSVNKRTGKASTENIVCTDIVWNSGGVQFKMSASASNPLNVYAPPVDYVLNVCVKKDGSIDVQGEHDGFPCFEFYKQVDFGPFEKIYTHDFRETGDTAAALGGNMDYSFTKRL”: the protein production entry is “not failed”.
Under “MTNKVKSKRIAAIDWMRGFVMIIMVLDHVSMAYNKEHLSTDSAASYIIGSPLPAFEFFTRWISHICAPVFVFLAGTALAISVERKLSRGFDSKAIDKDILLRGAFIALLDPTITSFFSGKLIFQVLYAIGIAMMCMAFFRRLSSTQLLIIAMAWILGGELVTAQFWFAGGQEQSIIVALLIGKYSSADLSISYALVPWLSVMILGWVFGRYILDYGDGKVTISPANLLFRLGFTALAAFIAIRYFNDYGNMFLLREDNSWQQWLHVSKYPPSASFIMLELGLMAVILALMIKVEQRIGVRPNGVLLVFGQTSMMFYLVHRIFLTGTATYGGLSDFTNLTNTYIISGVLLLLLFPFCIWYRSFKVKHPDSLWLKYL” stands “failed”; under “MTNLTNYHSHCLYCDGRANMEDFIRFAISEGFSSYGISSHAPLPFSTAWTMEWDRMDDYLSEFARLKEKYADKIELAIGLEIDYLNEESHPAIPRFQELPLDYRIGSVHMLYSPQGKVVDIDTPADIFRQLIDAHFEGDLDYVVHLYYKNLLRMVELGGFDILGHADKMHYNASCYRPGLLDEPWYDALVRDYFAEIARHGYIVEINTKSYHDLGTFYPNERYFPLLKELGIRVQVNSDAHYPERINNSRAEALAALKKVGFDTVVEWHGGQWKDMPLLQLEHHHHHH”, “not failed”.
“MTNQHRASFPSPTRGEGRTRTALATLFLSILFLILPALAARAMDIQQVTSPKGITAWLVEDYSVPIVAVRFVFGGGSTQDPVGKEGLTNLMTGLFDEGAGPLDSEAFQVRLDDAGAEMSFEETRDGVYGSMRMLAEQRDEAFDLLRLAVNEPRFDQAPIDRIRAQILSGIIANENDPDTVAQHRWARAVYGDHPYSRSDQGTRQSIAAITKDDLKALHKAVFARGGLHVAVVGAIDAETLKKKLDMVFGDLPQNQALTPVADVEPKLAQRVEVNYDLPQTSLQLAWPGVKRKSADFFPAVLMNEILGGGTFTSRLFAEVREKRGLAYSVNSSLVNQDHADALIVTTGTRSDRAAETLGIVRDVARQLAEEGPTEAELAATKKYLIGAYAITNLDSSSSIAATLVELQLDDLGIDYMQRRAGYINAVTLDQVKAAAKKLLTAEPTIMVVGPPLAGAGKG”: the protein production entry is on record as “failed”.
Take “MTNTLKTSYQKTPYKLGGNGPRNVGVLTEALQNIDDNLESDIYGNGAVIEDFETKIAKILGKQSAVFFPSGTMAQQIALRIWADRKENRRVAYHPLSHLEIHEQDGLKELQQITPLLLGTANQLLTIDDIKSLREPVSSVLIELPQREIGGQLPAFEELEKISEYCHEQGISLHLDGARLWEITPFYQKSAEEICALFDSVYVSFYKGIGGIAGAILAGNDDFVQEAKIWKRRYGGDLISLYPYILSADYYFEKRIGKMAEYFEAAKGLAERFNSCSGVKTVPEVPVSNMFHVYFENSADEIGAILTKIQDETGVGISGYLQEKSADVCAFEVSVGDAFAEIPAKNLELVFRCLEKEL”: the protein production result is given as “not failed”.
Under “MTNWLIAYQGEPGAYSEIAALRFGEPLPCESFDDVFSAVTEQKADYAVIPIENSLGGSIHQNYDLLLRRPVVILAETFVKVEHCLLGLPGASVETATKAMSHPQALVQCHNFFATHPQIRAEAAYDTAGSAKMVAESRDKSALAIASKRAGELYGLDILKENLADEEWNITRFFCIAHENNPDISHLKVRPDVARQKTSIVFALPNEQGSLFRALATFALRGIDLTKIESRPSRKKAFEYLFYADFIGHREDQNVHNALENLREFATMVKVLGSYGVVNP” stands “not failed”; under “MTNWTEIDEIAKKWIREAGARITQSMHESLTIETKSNPNDLVTNIDKETEKFFIDRIQETFPGHRILGEEGQGDKIHSLEGVVWIIDPIDGTMNFVHQQRNFAISIGIFENGEGKIGLIYDVVHDELYHAFSGRGAYMNETKLAPLKETVIEEAILAINATWVTENRRIDQSVLAPLVKRVRGTRSYGSAALELANVAAGRIDAYITMRLAPWDYAAGCVLLNEVGGTYTTIEGEPFTFLENHSVLAGNPSIHKTIFEEYLHARK”, “failed”.
As for “MTPAARLSAAIELIDTIERDRVPAAKALKEWGTAHRFAGSGDRAAIAGLVWDVLRRYASSAFLMDADTARARLIGMLRLERDMDAATMAALFDGSRFAPAPLTEAEQAALSHRSLRDAPAAIAGDYPEWLDPHLAKVFGEDRAAEAAAMASRAPLDLRVNTLKSNRDKVLRALAHLHAKPTPWSATGLRIELSADARNPGIQAEEDFIKGAVEVQDEGSQLAAQFTAAKPGEQVIDLCAGAGGKTLALAAMMQGKGRLIATDSDKRQLAPIHERLSRAGVHNADVRTPKGEADPLADISATADLVVIDAPCTGTGTWRRNPDAKWRMRPGALEIRLRDQAEVLERAVPLVKLGGRIAYITCSVLAEENGEQVRAFIGRHPEFAVVPPEQIASVLWDKAEDFAKAALQSPEGWLMTPRRTGTDGFFVSVLKKTA”, the protein production entry is on record as “failed”.
